Reference: paper PMC5522267, “Targeting PEPT1: a novel strategy to improve the antitumor efficacy of doxorubicin in human hepatocellular carcinoma therapy” (Oncotarget, 2017)
Marks after values point to notes of the source that are not given here.

Tests used:
[1] = target: T1, PEPT1 (Homo sapiens, UniProt P46059); parameters: method as in previous research of the authors (Figure 1); conditions: Bel-7402, HepG2 and Caco-2 cells; ref previous research of the authors (Figure 1); cited from earlier work
T1 construct: Doxorubicin-tripeptide conjugate were incubated with HCC cell monolayer at pH 6.0 for 120 min; endogenous in cells; host or cells: Bel-7402, HepG2 (human HCC cells); Caco-2
T1 sequence (P46059 1-708): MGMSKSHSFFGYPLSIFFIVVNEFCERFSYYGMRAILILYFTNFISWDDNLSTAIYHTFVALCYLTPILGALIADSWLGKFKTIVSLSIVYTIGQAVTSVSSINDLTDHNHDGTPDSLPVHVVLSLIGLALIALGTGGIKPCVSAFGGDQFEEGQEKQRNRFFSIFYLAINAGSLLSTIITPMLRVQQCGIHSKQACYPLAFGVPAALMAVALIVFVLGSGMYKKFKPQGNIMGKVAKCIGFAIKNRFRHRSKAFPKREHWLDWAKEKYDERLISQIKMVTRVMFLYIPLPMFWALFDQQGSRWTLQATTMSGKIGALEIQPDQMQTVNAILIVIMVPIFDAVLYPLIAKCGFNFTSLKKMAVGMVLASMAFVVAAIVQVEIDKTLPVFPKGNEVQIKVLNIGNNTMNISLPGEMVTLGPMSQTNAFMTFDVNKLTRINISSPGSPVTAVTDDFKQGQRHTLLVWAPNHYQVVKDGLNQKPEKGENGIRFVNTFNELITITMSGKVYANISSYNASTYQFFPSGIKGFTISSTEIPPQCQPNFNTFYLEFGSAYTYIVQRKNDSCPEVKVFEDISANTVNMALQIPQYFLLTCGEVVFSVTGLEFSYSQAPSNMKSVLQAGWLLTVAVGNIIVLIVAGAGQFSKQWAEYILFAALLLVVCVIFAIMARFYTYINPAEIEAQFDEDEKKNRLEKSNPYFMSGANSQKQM

[2] = tested on: HepG2 HCC
From the text: (§1) An animal model of HCC cells (Bel-7402, HepG2) transplanted into nude mice was established according to the method described in ref. 10.

[3] = tested on: Bel-7402 HCC
From the text: as §1

[4] = Drug distribution in tissues by Small Animal Imaging, Bel-7402 HCC mice; type: in vivo, nude mice; conditions: Bel-7402 HCC mice (high dose group), compared with Doxorubicin group
From the text: (§5) What's more, the tumor, liver, jejunum and heart tissue of mice were dissected firstly for Small Animal Imaging (KODAK IS in-vivo FX, Kodak), and secondly were placed in the 10% Formaldehyde solution to prepare paraffin section, HE staining for histological examination.

[5] = tested on: Caco2; experiment: cells; type: cell-based, human; conditions: Caco2, MTT
Method: (§2) Cells in the growth log phase were seeded in 96-well plate (200 ul/well) with density 8×10^3/well for 24 hours, then the drugs were added. The concentration of Doxorubicin-tripeptide conjugate was 0.005 mg/ml, 0.01 mg/ml, 0.02 mg/ml, 0.04 mg/ml, 0.06 mg/ml in turn, while Doxorubicin followed by 0.005 mg/ml, 0.01 mg/ml, 0.02 mg/ml, 0.04 mg/ml, 0.06 mg/ml with a same dosing volume 100 μl. Each concentration group included five equal wells and was provided with a control well of medium alone as a negative control. Add 20 μl of MTT Reagent ( 5 mg/ml, Sigma) to each well, including controls and continue to be incubated at 37°C for 4 hours. Remove the supernatant, drop plus DMSO (200 μl/well) and measure the OD value in each well, including the blanks, at 490 nm by a Multi-Mode Reader (BioTek, Synergy 2, USA). To calculate the inhibitory rate and the half maximal inhibitory concentration (IC50) according to the formula: Inhibitory rate =(1-( the dosing group OD/the control group OD )) × 100%, IC50 = lg^-1 (Xm-i (ΣP-0.5)) (Xm: the logarithm of maximum concentration, I: the logarithm of maximum dose/ adjacent dose, P: the sum of each group inhibitory rate, Pm: the maximum inhibitory rate, Pn: the minimum inhibitory rate ).

[6] = tested on: HepG2; experiment: cells; type: cell-based, human; conditions: HepG2, MTT
Method: as §2

[7] = tested on: Bel-7402; experiment: cells; type: cell-based, human; conditions: Bel-7402, MTT
Method: as §2

[8] = tested on: Caco2; experiment: Drug concentration in tumor cells by HPLC, Caco2; type: cell-based, human; conditions: incubated 2 hours
[9] = Drug distribution in tissues by Small Animal Imaging, HepG2 HCC mice; type: in vivo, nude mice; conditions: HepG2 HCC mice (low dose group), compared with control group
From the text: as §5

[10] = Blood routine, HepG2 HCC mice; type: in vivo, nude mice; conditions: low dose, after treatment
[11] = tested on: HepG2; experiment: Drug concentration in tumor cells by HPLC, HepG2; type: cell-based, human; conditions: incubated 2 hours
Method: (§3) When the density of HCC cells reached to 3 × 10^6/ml, they were trypsinized and centrifuge (4°C, 800rpm, 5min), then discarded the supernatant, dropping medium 3 ml and evenly mixed. Cell suspension was divided into three groups (control group, Doxorubicin-tripeptide conjugate group and Doxorubicin group). The drug concentration was 0.01 mg/ml for cultured 2 hours avoiding light. Then the cells obtained by centrifugation were proceeded by the following steps: washed 3 times with 1 ml normal saline, added 0.5 ml ultra pure water (Millipore), broken by ultrasonic wave, drooped in acetonitrile (Tianjin Concord Technology Co. Ltd, China) 0.5 ml, mixed, ultrasonic oscillation for 10 mins, centrifuge (1200 rpm, 15 min), take the supernatant, filtration with filter membrane, take 20 μl for HPLC analysis (Agilent 1100 HPLC system, USA).
(§4) Chromatographic conditions were as follows: chromatographic column: DIONEX Acclaim 120 C18 (2.1 × 250 mm, 5 μm 120A), Mobile phase: Acetonitrile-0.2%NaH2PO4 aqueous solution (35: 65), Velocity: 0.35 ml/min, column temperature: 30°C, DAD, 254 nm, sample size: 20 μl. […] According to the chromatographic condition, the retention time (tR), peak position time, chromatographic behavior, resolution (R), the minimum detectable concentration and the intracellular drug concentration of these two drugs were detected in turn.

[12] = Cardiac indexes, HepG2 HCC mice; type: in vivo, nude mice; conditions: low dose, after treatment
[13] = tested on: HCC cells; experiment: MTT on HCC cells (cell line not given); type: cell-based, human
Method: as §2

[14] = Blood routine, Bel-7402 HCC mice; type: in vivo, nude mice; conditions: high dose, after treatment
[15] = tested on: Bel-7402; experiment: Drug concentration in tumor cells by HPLC, Bel-7402; type: cell-based, human; conditions: incubated 2 hours
Method: as §3, §4

[16] = Cardiac indexes, Bel-7402 HCC mice; type: in vivo, nude mice; conditions: high dose, after treatment

SMILES: Cc1c(CC(=O)NCCCC[C@H](NC(=O)[C@@H](C)N)C(=O)O)c(=O)oc2cc(N)ccc12 [Ala-Lys-AMCA]
- inhibition of uptake by PEPT1 substrates [1]: competitive inhibition by three known substrates of PEPT1
- uptake dependence on time and concentration [1]: time-dependent and concentration-dependent

SMILES: COc1cccc2c1C(=O)c1c(O)c3c(c(O)c1C2=O)C[C@@](O)(C(=O)CO)C[C@@H]3O[C@H]1C[C@H](NC(=O)CNC(=O)CNC(=O)CN)[C@H](O)[C@H](C)O1 [Doxorubicin-tripeptide conjugate]
- deaths during treatment ([2]; HepG2, low dose group, 5W): no death
- Mice weight, Before treatment ([2]; HepG2 HCC mice, baseline): 20.88 ± 5.37 g
- Mice weight, After treatment ([2]; HepG2 HCC mice, low dose: Doxorubicin 40 mg/m^2, conjugate 200 mg/m^2, tail vein, 5 weeks): 19.90 ± 3.71 g
- deaths during treatment ([3]; Bel-7402, high dose group, 5W): 1 death during the treatment of 4W+
- Mice weight, Before treatment ([3]; Bel-7402 HCC mice, baseline): 23.22 ± 1.57 g
- Mice weight, After treatment ([3]; Bel-7402 HCC mice, high dose: Doxorubicin 60 mg/m^2, conjugate 300 mg/m^2, tail vein, 5 weeks): 20.13 ± 1.09^a g
- drug distribution in tissues [4]: mainly distributed in subcutaneous tumor tissue and liver metastatic tumor tissue and less in heart tissue
- change of mice weight during treatment (HCC mice, both dose groups): weight increase in group B at the early stage of treatment, but a weight decreased significantly at the late stage of treatment
- survival quality (general condition) (HCC mice, both dose groups): lethargy, vomiting and loss of appetite administered within 3 days, then gradually restored
- damage to heart and bone marrow (compared with the Doxorubicin group, cardiac indexes, histopathology, blood routine, bone marrow smears, P < 0.05): less damage to the heart and bone marrow
- IC50 [5]: 52.9 µg/mL
- IC50 [6]: 51.4 µg/mL
- IC50 [7]: 52.5 µg/mL
- drug concentration in tumor cells [8]: 3090 ± 30 ng/mL
- drug distribution in tissues [9]: mainly distributed in subcutaneous tumor tissue and less in heart tissue
- PLT [10]: 135.00 ± 69.55 ×10^9/l
- RBC [10]: 8.03 ± 0.91 ×10^12/l
- WBC [10]: 8.08 ± 3.40 ×10^9/l
- drug concentration in tumor cells [11]: 2940 ± 20 ng/mL
- AST [12]: 637.75 ± 319.83 U/L
- CK [12]: 1070.75 ± 193.32 U/L
- CK-Mb [12]: 570.00 ± 99.07^b U/L
- GSH-PX [12]: 682.33 ± 51.09 U
- LDH [12]: 6116.75 ± 1136.22 U/L
- MDA [12]: 3.16 ± 0.26 nmol/mg
- SOD [12]: 164.15 ± 25.20 U/mg
- IC50 [13]: 50 µg/mL
- PLT [14]: 159.83 ± 74.74^b ×10^9/l
- RBC [14]: 7.50 ± 1.77 ×10^12/l
- WBC [14]: 7.05 ± 2.70^b ×10^9/l
- drug concentration in tumor cells [15]: 3080 ± 30 ng/mL
- AST [16]: 720.83 ± 303.52^b U/L
- CK [16]: 1025.17 ± 182.34^b U/L
- CK-Mb [16]: 424.33 ± 189.91^b U/L
- GSH-PX [16]: 700.50 ± 79.58^b U
- LDH [16]: 6517.00 ± 1956.59 U/L
- MDA [16]: 2.78 ± 0.22^b nmol/mg
- SOD [16]: 171.71 ± 15.51 U/mg
